Laboratory results published in patent US20220177587A1, “METHODS AND USES OF VARIANT CD80 FUSION PROTEINS AND RELATED CONSTRUCTS” (Alpine Immune Sciences, Inc., priority 2018, published 2022).
Blank lines part the entries; values can stand above or below the substance they belong to.

Assays:
huCTLA4 = huCTLA4 (Homo sapiens, UniProt P16410); assay: Flow binding to CHO cells stably expressing CTLA4; set-up: huCTLA4 and huPD-L1, full-length mammalian surface expression constructs were generated; expressed in transfected cells; host or cells: CHO cells, lentiviral transduction, sorted to >98% purity; conditions: Table E20; for CTLA4 MFI at 33.3 nM: CHO cells stably expressing CTLA4; for CTLA4 Fold change to WT CD80: MFI at 33.3 nM relative to CD80 WT IgV-Fc
Experimental: (§1) Binding of selected immunomodulatory fusion proteins to cognate binding partners was assessed. […] Cells were sorted in a Bio-Rad S3 Cell Sorter (Bio-Rad Corp., USA) to >98% purity. Jurkat/IL2 reporter cells, which endogenously express CD28, were used to detect binding to CD28.
(§2) For staining and analysis by flow cytometry, 100,000 cells of appropriate transfected cells were plated in 96-well round bottom plates. Cells were spun down and resuspended in staining buffer (phosphate buffered saline (PBS), 1% bovine serum albumin (BSA), and 0.1% sodium azide) for 20 minutes to block non-specific binding. […] Primary staining was performed on ice for 45 minutes, before washing cells in staining buffer twice. Phycoerythrin (PE)-conjugated anti-human Fc (Jackson ImmunoResearch, USA) was diluted 1:150, added to cells and incubated another 30 minutes on ice. Cells were then washed twice with 150 μL/well stain buffer, fixed in 2% formaldehyde/PBS, and analyzed on Intellicyt flow cytometer (Intellicyt Corp., USA). PE Mean Fluorescence Intensity (MFI) was calculated for each cell type with FlowJo Version 10 software (FlowJo LLC, USA).
(§3) Binding assays were carried out to assess the specificity and affinity of multivalent proteins to cell-expressed CTLA-4, CD28, and PD-L1 counter structures.
(§4) The EC50 for binding also was determined.

huPD-L1 = huPD-L1 (Homo sapiens, UniProt Q9NZQ7); assay: Flow binding to CHO cells stably expressing PD-L1; set-up: huCTLA4 and huPD-L1, full-length mammalian surface expression constructs were generated; expressed in transfected cells; host or cells: CHO cells, lentiviral transduction, sorted to >98% purity; conditions: Table E20; for PD-L1 MFI at 33.3 nM: CHO cells stably expressing PD-L1; for PD-L1 Fold change to WT CD80: MFI at 33.3 nM relative to CD80 WT IgV-Fc; for Ratio of PDL1:CD28: ratio of MFI at 33.3 nM
Experimental: as §1, §2, §3, §4

CD28 [1] = target: T1, CD28 (Homo sapiens, UniProt P10747); assay: Jurkat/IL2 + CHO/OKT3 +/- PD-L1 reporter assay: PD-L1-dependent CD28 costimulation; type: cell-based; set-up: host or cells: Jurkat cells expressing an IL-2-luciferase reporter; conditions: Table E22, Jurkat/IL2 + CHO/OKT3/PD-L1; for Fold Increase over WT CD80-IgV-Fe: 5.0 nM
Experimental: Jurkat cells were then plated at 50 μL/well for a total of 100,000 cells per well.
To each well, 25 μL of test protein was added to the Jurkat cells. […] The Jurkat cells with test or control proteins were incubated for 15 minutes at room temperature. CHO-derived artificial antigen presenting cells (aAPC) displaying transduced cell surface anti-CD3 single chain Fv (OKT3) (i.e., no PD-L1), or OKT3 and PD-L1 (i.e., +PD-L1), were brought to 0.8×10^6 cells/mL, and 25 μL of cells were added to each well, bringing the final volume of each well to 100 μL. […] Jurkat cells and CHO cells were incubated for 5 hours at 37 degrees Celsius in a humidified 5% CO2 incubation chamber. Plates were then removed from the incubator and acclimated to room temperature for 15 minutes. 100 μL of a cell lysis and luciferase substrate solution (BioGlo luciferase reagent, Promega) were added to each well and the plates were incubated on an orbital shaker for 10 minutes. Luminescence was measured with a 1 second per well integration time using a BioTek Cytation luminometer, and a relative luminescence value (RLU) was determined for each test sample.

CD28 [2] = target: T1, CD28; assay: Flow binding to Jurkat/IL2 reporter cells (CD28); set-up: host or cells: Jurkat cells expressing an IL-2-luciferase reporter; conditions: Table E20; for CD28 MFI at 33.3 nM: Jurkats (CD28); for CD28 Fold change to WT CD80: MFI at 33.3 nM relative to CD80 WT IgV-Fc
Experimental: as §1, §2, §3, §4

huPD-L1, sequence (Q9NZQ7 19-290): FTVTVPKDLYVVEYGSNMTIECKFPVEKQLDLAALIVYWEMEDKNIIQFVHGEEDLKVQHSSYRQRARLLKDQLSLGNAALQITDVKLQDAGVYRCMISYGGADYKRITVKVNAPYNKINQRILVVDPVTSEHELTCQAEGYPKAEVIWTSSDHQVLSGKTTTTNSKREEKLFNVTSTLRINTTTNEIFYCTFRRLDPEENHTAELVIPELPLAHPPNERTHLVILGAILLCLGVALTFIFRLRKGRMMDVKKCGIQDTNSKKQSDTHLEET
huCTLA4, sequence (P16410 36-223): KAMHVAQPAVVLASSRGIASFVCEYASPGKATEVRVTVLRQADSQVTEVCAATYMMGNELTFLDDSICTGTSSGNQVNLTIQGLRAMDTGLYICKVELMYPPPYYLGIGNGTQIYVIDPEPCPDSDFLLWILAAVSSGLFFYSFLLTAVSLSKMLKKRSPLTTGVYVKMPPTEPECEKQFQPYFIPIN

Substance: H18Y/A26E/E35D/A71G/D90G
CTLA4 MFI at 33.3 nM (huCTLA4): −100 | CTLA4 Fold change to WT CD80 (huCTLA4): −0.1 fold | PD-L1 MFI at 33.3 nM (huPD-L1): 14822 | PD-L1 Fold change to WT CD80 (huPD-L1): 340.0 fold | Ratio of PDL1:CD28 (huPD-L1): 13.8 | Fold Increase over WT CD80-IgV-Fe (CD28 [1]): 2.45 fold | Relative Luciferase Units (RLU), CD80 Conc 5.0 nM (CD28 [1]): 956 RLU | CD28 MFI at 33.3 nM (CD28 [2]): 1075 | CD28 Fold change to WT CD80 (CD28 [2]): 24.5 fold

Substance: H18Y/A26E/E35D/M47L/A71G
CTLA4 MFI at 33.3 nM (huCTLA4): 19353 | CTLA4 Fold change to WT CD80 (huCTLA4): 14.2 fold | PD-L1 MFI at 33.3 nM (huPD-L1): 16887 | PD-L1 Fold change to WT CD80 (huPD-L1): 387.3 fold | Ratio of PDL1:CD28 (huPD-L1): 44.6 | Fold Increase over WT CD80-IgV-Fe (CD28 [1]): 2.42 fold | Relative Luciferase Units (RLU), CD80 Conc 5.0 nM (CD28 [1]): 944 RLU | CD28 MFI at 33.3 nM (CD28 [2]): 379 | CD28 Fold change to WT CD80 (CD28 [2]): 8.6 fold

Substance: H18Y/A26E/E35D/V68M/A71G/D90G
CTLA4 MFI at 33.3 nM (huCTLA4): 23386 | CTLA4 Fold change to WT CD80 (huCTLA4): 17.2 fold | PD-L1 MFI at 33.3 nM (huPD-L1): 28683 | PD-L1 Fold change to WT CD80 (huPD-L1): 657.9 fold | Ratio of PDL1:CD28 (huPD-L1): 16.3 | Fold Increase over WT CD80-IgV-Fe (CD28 [1]): 2.41 fold | Relative Luciferase Units (RLU), CD80 Conc 5.0 nM (CD28 [1]): 940 RLU | CD28 MFI at 33.3 nM (CD28 [2]): 1757 | CD28 Fold change to WT CD80 (CD28 [2]): 40.0 fold

Further lines, results first:

CTLA4 MFI at 33.3 nM (huCTLA4): 19736 | CTLA4 Fold change to WT CD80 (huCTLA4): 14.5 fold | PD-L1 MFI at 33.3 nM (huPD-L1): 12698 | PD-L1 Fold change to WT CD80 (huPD-L1): 291.2 fold | Ratio of PDL1:CD28 (huPD-L1): 9.2 | Fold Increase over WT CD80-IgV-Fe (CD28 [1]): 2.37 fold | Relative Luciferase Units (RLU), CD80 Conc 5.0 nM (CD28 [1]): 925 RLU | CD28 MFI at 33.3 nM (CD28 [2]): 1379 | CD28 Fold change to WT CD80 (CD28 [2]): 31.4 fold
Substance: H18Y/A26E/E35D/M47L/D90G

CTLA4 MFI at 33.3 nM (huCTLA4): 24855 | CTLA4 Fold change to WT CD80 (huCTLA4): 18.3 fold | PD-L1 MFI at 33.3 nM (huPD-L1): 25217 | PD-L1 Fold change to WT CD80 (huPD-L1): 578.4 fold | Ratio of PDL1:CD28 (huPD-L1): 9.4 | Fold Increase over WT CD80-IgV-Fe (CD28 [1]): 2.29 fold | Relative Luciferase Units (RLU), CD80 Conc 5.0 nM (CD28 [1]): 893 RLU | CD28 MFI at 33.3 nM (CD28 [2]): 2675 | CD28 Fold change to WT CD80 (CD28 [2]): 60.9 fold
Substance: H18Y/A26E/E35D/M47L/V68M/D90G

CTLA4 MFI at 33.3 nM (huCTLA4): 19394 | CTLA4 Fold change to WT CD80 (huCTLA4): 14.3 fold | PD-L1 MFI at 33.3 nM (huPD-L1): 27476 | PD-L1 Fold change to WT CD80 (huPD-L1): 630.2 fold | Ratio of PDL1:CD28 (huPD-L1): 69.7 | Fold Increase over WT CD80-IgV-Fe (CD28 [1]): 2.46 fold | Relative Luciferase Units (RLU), CD80 Conc 5.0 nM (CD28 [1]): 961 RLU | CD28 MFI at 33.3 nM (CD28 [2]): 394 | CD28 Fold change to WT CD80 (CD28 [2]): 9.0 fold
Substance: H18Y/A26E/E35D/V68M/A71G

CTLA4 MFI at 33.3 nM (huCTLA4): 19331 | CTLA4 Fold change to WT CD80 (huCTLA4): 14.2 fold | PD-L1 MFI at 33.3 nM (huPD-L1): 23206 | PD-L1 Fold change to WT CD80 (huPD-L1): 532.2 fold | Ratio of PDL1:CD28 (huPD-L1): 9.0 | Fold Increase over WT CD80-IgV-Fe (CD28 [1]): 2.69 fold | Relative Luciferase Units (RLU), CD80 Conc 5.0 nM (CD28 [1]): 1049 RLU | CD28 MFI at 33.3 nM (CD28 [2]): 2584 | CD28 Fold change to WT CD80 (CD28 [2]): 58.9 fold
Substance: H18Y/A26E/E35D/V68M/D90G
